Here are results for one molecule from US20220177578A1 (MAGENTA THERAPEUTICS, published 2022).

This assay concerns the target T1, Human CD117 antigen (recombinant CD117 ectodomain) (human, UniProt P10721 26-520).
T1 construct: also called c-kit; ectodomain of human CD117
Kind of assay: chemical cross-linking, High-Mass MALDI MS and nLC-Orbitrap MS of the CD117/Ab67 complex. The procedure: A sample of Ab67 was diluted in distilled water to a concentration of 2.7 mg/mL. 1 μL of the diluted Ab67 was then mixed with 1 μL of a matrix composed of a re-crystallized sinapinic acid matrix (10 mg/mL) in acetonitrile/water (1:1, v/v), TFA (0.1% (K200 MALDI Kit). The mixture was submitted to cross-linking using CovalX's K200 MALDI MS analysis kit. The protein solutions were mixed with 1 μl of K200 Stabilizer reagent (2 mg/ml) and incubated at room temperature. After the incubation time (180 minutes) the samples were prepared for MALDI analysis. The samples were analyzed by High-Mass MALDI MS immediately after crystallization at room temperature.
After digestion, formic acid 1% final was added to the solution. After proteolysis, 10 ul of the peptide solution generated by proteolysis were loaded onto a nano-liquid chromatography system (Ultimate 3000-RSLC). The cross-linked peptides were analyzed using Xquest version 2.0 and Stavrox 3.6. software. nLC-LTQ-Orbitrap MS/MS analysis using a nLC Ultimate 3000-RSLC system in line with a LTQ-Orbitrap mass spectrometer (Thermo Scientific) was performed.

T1 sequence (P10721 other isoform, or with tags, fused parts or gaps): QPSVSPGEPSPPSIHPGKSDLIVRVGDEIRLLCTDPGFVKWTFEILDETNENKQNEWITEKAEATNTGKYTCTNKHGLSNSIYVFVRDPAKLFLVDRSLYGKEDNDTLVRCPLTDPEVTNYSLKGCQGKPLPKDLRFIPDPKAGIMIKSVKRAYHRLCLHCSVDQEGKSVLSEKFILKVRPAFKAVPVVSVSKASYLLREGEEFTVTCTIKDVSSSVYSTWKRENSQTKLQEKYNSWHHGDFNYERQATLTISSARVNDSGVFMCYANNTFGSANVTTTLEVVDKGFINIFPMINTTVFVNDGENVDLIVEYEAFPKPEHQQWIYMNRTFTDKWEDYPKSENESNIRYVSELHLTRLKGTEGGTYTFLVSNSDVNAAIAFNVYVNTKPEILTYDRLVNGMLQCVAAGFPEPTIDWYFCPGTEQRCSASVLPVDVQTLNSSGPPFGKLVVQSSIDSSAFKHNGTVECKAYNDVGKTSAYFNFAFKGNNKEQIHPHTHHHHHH

B1: Antibody 67 (Ab67), human anti-CD117 antibody (antibody, V domains shown)
VH: EVQLVESGGGLVQPGGSLRLSCAASGFTFSDADMDWVRQAPGKGLEWVGRTRNKAGSYTTEYAASVKGRFTISRDDSKNSLYLQMNSLKTEDTAVYYCAREPKYWIDFDLWGRGTLVTVSS
VL: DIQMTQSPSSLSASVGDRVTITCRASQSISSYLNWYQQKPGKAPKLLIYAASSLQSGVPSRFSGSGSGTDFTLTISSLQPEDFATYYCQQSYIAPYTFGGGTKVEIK
notes: also called Antibody HC-67/LC-67
With B1, the binding result was “binds”.
